Source: article PMC10528910

Biological target: syntrophin PDZ domain (UniProt Q61234)

VKESLV ligand (syntrophin PDZ ligand) (peptide)
Kd: 1.97 µM
